Reference: article PMC2836974 (Molecular Biology of the Cell, 2010)

Tests used:
[1] = target: RasG, GST fusion, loaded with mGppNHp (Dictyostelium discoideum, UniProt P15064 1-189); test: guanine nucleotide dissociation inhibition
[2] = target: T1, C-terminal-truncated Rap1 (amino acids 1-169), GST fusion, loaded with mGppNHp (Dictyostelium discoideum, UniProt P18613 1-169); test: guanine nucleotide dissociation inhibition
T1 sequence: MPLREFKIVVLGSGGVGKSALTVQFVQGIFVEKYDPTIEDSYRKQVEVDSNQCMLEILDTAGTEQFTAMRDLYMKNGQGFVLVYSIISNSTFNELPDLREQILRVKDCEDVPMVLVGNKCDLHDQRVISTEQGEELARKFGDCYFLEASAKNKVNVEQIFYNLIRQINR

Sequence of RasG, GST fusion, loaded with mGppNHp (P15064 whole entry, the tested form may be a part): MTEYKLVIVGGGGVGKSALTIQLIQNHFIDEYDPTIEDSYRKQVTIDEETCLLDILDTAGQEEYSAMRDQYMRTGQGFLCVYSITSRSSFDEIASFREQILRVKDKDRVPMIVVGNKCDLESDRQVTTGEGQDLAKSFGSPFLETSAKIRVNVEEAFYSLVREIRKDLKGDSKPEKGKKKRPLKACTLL

B1: PI3K2-RBD (RBD domain of PI3K2, amino acids 757-918) (domain or fragment)
chain: GHIQAELEIFELIGTSFTRVLDQGQEVVSFRRDFAQFRLSNFTSTRNDLSQMIYVSSEPLPLTIPNKITIMVLLPGDGKIIKRVDCCPNSSVGDVKKEIFKKFAMIDRVHTQGKTQDDFVLKVTGFREYILCIHELGNLTSRQRFYPTGSGGDFSLMDYDYI
Kd [1]: 24 µM
Kd [2]: 40 µM
